Results as given in the DeepSol protein solubility set.

experiment: soluble on expression in E. coli; label from the status in PepcDB or PDB records

Row | Sequence | soluble on expression in E. coli
1 | MSPPSTIAYVLPPGFKFVPNDEEVIHCYLKPYSDGNTNVLLHVPIHLVNIYESNPQTLSEEFQKGNDKEWFIITERNKVDQGLSQTKRVGYGAKRQKRVDTNGGYWHATVAAQKINAGDGVVRNKRPLAYYVGKPSEGVKTDWLMQEYSLDHSSHNNDKDYTLCKIYLTPQATKMNKEVGEEKKKQKKGEAVVSVAPVEALEEQLPCNVEYHQPLAPLDSCQPQPHDLAYQQQQFCPGPLDSYQPQPHDMENQQPHNEKLKKEEDVEQLDLHQPDQGKGC | not soluble
2 | MSQEIRQNEKISYRIEGPFFIIHLINPDNLNALEGEDYIYLGELLELADRNRDVYFTIIQSSGRFFSSGADFKGIAKAQGDDTNKYPSETSKWVSNFVARNVYVTDAFIKHSKVLICCLNGPAIGLSAALVALCDIVYSINDKVYLLYPFANLGLITEGGTTVSLPLKFGTNTTYECLMFNKPFKYDIMCENGFISKNFNMPSSNAEAFNAKVLEELREKVKGLYLPSCLGMKKLLKSNHIDAFNKANSVEVNESLKYWVDGEPLKRFRQLGSKQRKHRL | soluble
3 | MSQFTLYKNKDKSSAKTYPYFVDVQSDLLDNLNTRLVIPLTPIELLDKKAPSHLCPTIHIDEGDFIMLTQQMTSVPVKILSEPVNELSTFRNEIIAAIDFLITGI | soluble
4 | MSQLEIRDLWASIDGETILKGVNLVVPKGEVHALMGPNGAGKSTLGKILAGDPEYTVERGEILLDGENILELSPDERARKGLFLAFQYPVEVPGVTIANFLRLALQAKLGREVGVAEFWTKVKKALELLDWDESYLSRYLNEGFSGGEKKRNEILQLLVLEPTYAVLDETDSGLDIDALKVVARGVNAMRGPNFGALVITHYQRILNYIQPDKVHVMMDGRVVATGGPELALELEAKGYEWLKEKVKEGA | soluble
5 | MSQLPTDFASLIKRFQFVSVLDSNPQTKVMSLLGTIDNKDAIITAEKTHFLFDETVRRPSQDGRSTPVLYNCENEYSCINGIQELKEITSNDIYYWGLSVIKQDMESNPTAKLNLIWPATPIHIKKYEQQNFHLVRETPEMYKRIVQPYIEEMCNNGRLKWVNNILYEGAESERVVYKDFSEENKDDGFLILPDMKWDGMNLDSLYLVAIVYRTDIKTIRDLRYSDRQWLINLNNKIRSIVPGCYNYAVHPDELRILVHYQPSYYHFHIHIVNIKHPGLGNSIAAGKAILLEDIIEMLNYLGPEGYMNKTITYAIGENHDLWKRGLEEELTKQLERDGIPKIPKIVNGFK | soluble
6 | MSQMMQMYQQVGPAQFSAMIGQFAPYFASIAPQFVELRPGYAEVTFPKRREVLNHIGTVHAIALCNAAELAAGTMTDASIPAGHRWIPRGMTVEYLAKATGDVRAVADGSQIDWQATGNLVVPVVAYVDDKPVFRAEITMYVSQA | soluble
7 | MSQPLLAVNGLMMRFGGLLAVNNVSLELREREIVSLIGPNGAGKTTVFNCLTGFYKPTGGTITLRERHLEGLPGQQIARMGVVRTFQHVRLFREMTVIENLLVAQHQQLKTGLFSGLLKTPAFRRAQSEALDRAATWLERIGLLEHANRQASNLAYGDQRRLEIARCMVTQPEILMLDEPAAGLNPKETKELDELIAELRNHHNTTILLIEHDMKLVMGISDRIYVVNQGTPLANGTPEEIRNNPDVIRAYLGEA | soluble
8 | MSQVSIIIPTLNEAASLGRTLRQLTLLNPPAKEVIVVDGGSEDETIAIAKQNFESFRQATGVQVIFCERRGRSVQMNYGALSATGDILCFLHADTWVPDDLVAVIEKTLAETKVSCGGFISLMTGSQTTRWGISLHNYLKTYYAPLLFKPHLFFQGLRLLFGDQVMFCRRNDFWDCGGFNEELPIMEDGDLCLKLVQKGRIALVNRIVQSSDRRVARWGSWKATAIYLYIGVLWGIGVDANYLKQFYQDIRLEHHHHHH | soluble
9 | MSQYSNMYKFEIDIQGNLEEVYGRIFSVLKQAGYIILSYVDVAEILQRTMQKKIDPLYILNICKPAAANEFISESYETSMFIPCKLVLHQMGENTRVSLQLISPQIETFTDLSTDVAKKYENEIVDILKKM | not soluble
10 | MSRAKAAPVAGPEVAANRAGRQARIVAILSSAQVRSQNELAALLAAEGIEVTQATLSRDLEELGAVKLRGADGGTGIYVVPEDGSPVRGVSGGTDRMARLLGELLVSTDDSGNLAVLRTPPGAAHYLASAIDRAALPQVVGTIAGDDTILVVAREPTTGAQLAGMFENLR | soluble
11 | MSREILTVVETVSNEKGVSREAIFEALEQALVAATKKKFYEGTNAEEAQLRVEIDRKTGDYRTFRQWTLVADEDHEMPACQDAISDVDASKWSIGDVRELEVESIEFGRIAAQIAKQVIVQKIREAERALIADAYESKVGELIYGEVKKQTKDGFIIDLGDNAEAYLAREEMIAKEILRPKQRMNAILYSVNREGRGAQLLLSRARPEMLMALMKKEIPEISEEIIEIKAAARQPGVRAKIAVKTNDHRIDPVGACIGMRGTRIQAVQQELNGERIDVVVWSDDPAQYIASALEPADVSGIVLDEDTRSADIIFATNDQLARAIGSQGQNVRLASELTGYKLDMMLEEEYRARQQNEAQQYLDMFVTRLDIEEDLAMALVEMGFTSLEEIAYVPPETFDEIELDQELVELLQSRAKEAALTDALKQQENVQEPSVELLAMAGMTQELAYALAARGVVTVDDLADQATDDISDIEGLSEEKAGQLIMKARESWFNLEHHHHHH | soluble
12 | MSRFQTLTPASLSREAFIEAFADIYEHSPWVAEKAYDLGIDDSLNDIEGLHQRMADILLSASREAQLALINAHPDLAGKAAIRGELTASSTSEQAGAGIHECSAEEFARFTELNDAYKARFGFPFIKAVKGSNRHQILAAFEERIQHSADEEFATALAEINKIALFRLQQLLEHHHHHH | soluble
13 | MSRGPEEVNRLTESTYRNVMEQFNPGLRNLINLGKNYEKAVNAMILAGKAYYDGVAKIGEIATGSPVSTELGHVLIEISSTHKKLNESLDENFKKFHKEIIHELEKKIELDVKYMNATLKRYQTEHKNKLESLEKSQAELKKIRRKSQGSRNALKYEHKEIEYVETVTSRQSEIQKFIADGCKEALLEEKRRFCFLVDKHCGFANHIHYYHLQSAELLNSKLPRWQETCVDAIKVPEKIMNMIEEIKTPASTPVSGTPQASPMIERSNVVRKDYDTLSKCSPKMPPAPSGRAYTSPLIDMFNNPATAAPNSQRVNNSTGTSEDPSLQRSVSVATGLNMMKKQKVKTIFPHTAGSNKTLLSFAQGDVITLLIPEEKDGWLYGEHDVSKARGWFPSSYTKLLEENETEAVTVPTPSPTPVRSISTVNLSENSSVVIPPPDYLECLSMGAAADRRADSARTTSTFKAPASKPETAAPNDANGTAKPPFLSGENPFATVKLRPTVTNDRSAPIIR | soluble
14 | MSRIIALIISFLLVGCATPPMPAQRIVGEVRMSRPLSRIAHIDVSMFGLYEGKVREVQRTHFETGNLPLFFSIKLNPAQRGEGELYLRSTLSFPERGVQAVAQQKLTGKNKVVLQMIPKTCYPNCQLPNTR | not soluble
15 | MSRISVENVKHVAHLARLAITDQEAEKFQKQLDAIVTFAEQLNELDTTDVKPTTHVLTMKNVMREDVPEKGLPVEEVLKNAPDHKDNQIRVPAVLE | not soluble
16 | MSRLGYVMTKASAKNFKVYINGSARGYRNIIINGAKSWNPSPYLNTVTMGNDVKPNFTVSSSNTNKGSVLAVCNTTYYKSNKLIVKNEITLYKGFRSLSNNHKIETVAHEFGHGFGLGHVKTRNAIMLDKGFINKTKPQKLEHHHHHH | not soluble
17 | MSRLLLVWDAPNLDMGLGALLGGRPTTAHRPRFDAVGRWLLAKAGELAHTTGSKVESEATVFANVVPGSADSIRSWVEALRNVGFAVFAKPKLRDDTDVDPDMLAHIRKRFEEGDLAGVIVASADGRNFQETLDELASAGVAITVIGFHEHATWALADDRITFVDLEEIPGVFREPLPRVSLDNLPEEGAWLKPIRPLSALLSKSK | not soluble
18 | MSRQACKKSFSCGSQGFSGHSAVVSGSSRSSCVARSGAASGGACGFRSGAGSLGSHSLYSLGGSKSISISVAAGGSRAGGFSGGRSSCGSGFGSGYGGSLGGSRGMGAGFGGPSGFGGAGGFGRPGSFGPGSCPGGIQEVTINQSLLQPLNVEIDPQIGQVKAQEREQIKTLNNKFASFIDKVRFLEQQNKVLETKWELLQQQTIRSGSGPQNLEPFFESCISCLRKQLDSLLGAKGSLEGELKSMQDLVEDFKKKYEEEINRRTAAENEFVGLKKDVDGAFMNKVELQAKVDSLTDEINFLRTLYDMELSQIQSHVSDTSVVLSMDNNRCLDLDSIIAEVKAQYEDIAQKSKAEAEALYQTKLGELQTTAGRHGDDLRSTKSEIMDLNRMIQRLRAEIENVKKQNTNMQTSIAEAEQRGERALKDADTKFQYLQVALQKAKEDMARLLKEYQELMNVKLALDVEIATYRKLLEGEECRLSGEFQNAVSISVVSNVTSTSSSGSFRGTGGSNYGGDSSGRSGGSSSSSSRGSSSRGSSGSRLGSGGSISVSQQRMGFNSGGSQTSVGSSYKSGRGGSSSVQFSQTTSSSQQRSK | soluble
19 | MSRQPKPARLAGGALALGLLLGLPNPVEAAQDNGMEHSAMDHGAMPGMDHGAASPAPAQPMEHRGMDHGRMPGMSHAARQPPAQAASSQSRTPIPVPTEADRRAAFPPLEGHKVHDSALNSFFLLDQLEYQDADDGSALAWDASGWIGGDINRLWLRSEGERLDGKTEDAEVQALFGHAIGPWWDLVAGVRQDFKPGSPQTWAAFGVQGLALYDFEAEVTAFLGENGQSALRLEGEYDILLTNRLILQPSAEVNLYGRNDPARGIGSGLADSELGLRLRYEIRREFAPYIGVTWNRSYGNSADLARAEGEDDDEARFVAGIRMWFLEHHHHHH | not soluble
20 | MSRRLFGRLREALNRASEHIARGIVDTLAYKELKPEDLEPVLDDILIDLVESDVALEAAESIVAGVKEGLTGYRVRRGEPVEKVVRDALRKALLTLLDPGPRPDLAAEARRRCGGRPLVILFLGVNGTGKTTTIAKVAYMLRKAGVTPVIAAADTFRAGAQEQLAVHAEKLGVPIVRGRYGGDPASVAYDAVKHAESRGFCAVLVDTAGRMHVDSNLVEELRKIVRVVKPDYKILVVDSLTGNDAVEQARLFDEAVGVDGVIVTKVDADPKGGTLVSVAHAIRKPILYIGTGQRYEDLRPFDPQKIVDQLLG | soluble
21 | MSRSDAGRPAPTGADADRRTMVLESAMATFARFGYRKTSMEEVARAAHISRPGLYFLFSSKESLFRAAVTQALHRDITAVERALADGDRPLPERLVEAFDHWAGRYVGPLTRDVATVIEANPGILGEVVEVLPRRFEELVTDAITVATGREGAVRIAQTMISASTGLKHQVGSRESYLERLTVAVGLLLR | not soluble
22 | MSRVCVFFLLSFIFSVHADPKVVNLFRVTSLGSLTISVESGGKIFLASGDDNQYLKNIQLTTGTTTITLDKLNDLNDDGSPKFITAAGSVILQTSNNDTTTSRLSGYIYVTTYLQAQDPTFSVYVLKTTQSISKMGMKSTVVVLNTVLRQELIDYDMPRAISYVTKIDHSPNTNLYFQWDIPASNWNDVTNNTFFRNPIELKNGTGPHFKVFFDNIEPLQIGLNYWYITSMGPFNLFLENKYVSDHSYTTTAVNTTGIIVGKSFYADRVVNFQSDTSRSSASGFFDSAYITDDLTIKLQFVGASFSNTLRKESETQNYAWSPAAPVNLTVTSTSTLPGTFYIQYFAFAGDLQPLTSTVATSLMLQTSTTTVASTAVTTSRIITTTKGSSSNCGVHILISLLLSMVFC | not soluble
